Assay results from the nanobody polyreactivity screen of Harvey et al. (2022).

Experiment: yeast display, Sf9 membrane polyspecificity reagent, FACS + sequencing; frameworks hold sequencing errors
In short: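 A synthetic nanobody library was expressed on Saccharomyces cerevisiae BJ5465 by galactose induction for 36–48 hours. The library was stained for 1 hour at 4 °C with 10% biotinylated, detergent-solubilized Sf9 membrane reagent and enriched with streptavidin microbeads before FACS. Low and high (top ~1%) gates were set on anti-HA fluorescence for expression and streptavidin fluorescence for reagent binding, and each polyreactivity label reflects the gate of origin.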

Sequence | polyreactivity (PSR sort gate)
QVQLVESGGGLVQAGGSLRLSCAASGLIFYAYYMGWYRQAPGKERELVAAISYSGGSTYYADSVKGRFTISRDNAKNTVYLQMNSLKPEDTSVYYCAADDGISTYEYWGQGTQVTVSS | high polyreactivity
QVQLVESGGGLVQAGGSLRLSCAASGLIFYDNMGWYRQAPGKERELVAAISSSGGSTSYADSVKGRFTISRDNAKNTVYFLMNSLKPEDTAVYYCAADQYYYWYTHQSIGYDYWGQGTQVTVSS | low polyreactivity
QVQLVESGGGLVQAGGSLRLSCAASGLIFYFNGMGLYRQAPGKERELVASISASGDRTYYADSVKGRFTISRDNAKNTVYLQMNSLKQEDTAVYYCATDANTYTKYDYWGQGTQVSVSS | low polyreactivity
QVQLVESGGGLVQAGGSLRLSCAASGLIFYGNAMGWYRQAPGKERELVADITGSSVRTYSADSVKGRFTISRDNAKNTVYVQMNSLNRKIPRSITALNVSCTSVVVGYDYWGQGTQVTVSS | low polyreactivity
QVQLVESGGGLVQAGGSLRLSCAASGLIFYGNAMGWYRQSPGKDRELVAAISRRGGRTYYADSVKGRFTISRDNAENTVYLQMNSLKPEDTAVYYCSAQYSYPYYKVTLYYWGQGTQVTVSS | high polyreactivity
QVQLVESGGGLVQAGGSLRLSCAASGLIFYINAMGWYRQAPGKERELVASITRTGSTNYADSVKGRFTISRDNAKNTVYLQMNSLKAEDTAVYYCAAYGPVYPHEYDYWGQGTQVTVSS | low polyreactivity
QVQLVESGGGLVQAGGSLRLSCAASGLIFYLYAMGWYRQAPGKERELVAAFTYSGGSTRYADSVKGRFTISRDNAKNTVYLQMNSLKPEDTAVYYCNADGTAPTEMDYWGQGTQVTVSS | low polyreactivity
QVQLVESGGGLVQAGGSLRLSCAASGLIFYNYAMGWYRQAPGKERELVAAISRSGGRTYYADSVKGRFTISRDNAKNTVYLQMNSLKPEDTAVYYCNAVHVSIEGYYWGQGTQVTVSS | high polyreactivity
QVQLVESGGGLVQAGGSLRLSCAASGLIFYPYAMGWSRQAPGKEREFVAAITWSGGSTRYADSVKGRFTISRDNAKNTVYLQMNSLNPEDTAVYYCAAAYKWTYYWGQGTQVTVSS | high polyreactivity
QVQLVESGGGLVQAGGSLRLSCAASGLIFYPYAMGWYRQAPGKERELVAGISSSGDSTYYADSVKGRFTISRDNAKNTVYLQMNSLKPEDTAVYYCNADGWYFEYWGQGTQVTVSS | low polyreactivity
QVQLVESGGGLVQAGGSLRLSCAASGLIFYRYAMGWYRQAPGTERELVAVITRSGCNTNYADSVKGRFTISRDNAKNTVYLQMNSLKPEDTEVYYCDTRGIWKKVPYYYWGQGTQVTVSS | low polyreactivity
QVQLVESGGGLVQAGGSLRLSCAASGLIFYRYTMGWYRQAPGKEREFVAAITAGGSTYYADSVKGRFTISRDNAKNTVYVQMNSLKPEDTAVYYCATLVRLLQYTYIKYDYWGQGTQVTVSS | high polyreactivity
QVQLVESGGGLVQAGGSLRLSCAASGLIFYRYTMGWYRQAPGKERELVAAISWRGTRTYYADSVKGRFTISRDNAKNTVYLQMNSLKPEDTAVYYCTAGYVRRYSPSSSWRYDYWGQGTQVTVSS | high polyreactivity
QVQLVESGGGLVQAGGSLRLSCAASGLIFYSYTMGWYRQAPGKERELVASITWTGGSTYYADSVKGRFTISRDNAKNTVYLQMNSLKPEDTAVYYCAVRVPSSIHIQLDYWGQGTQVTVSS | high polyreactivity
QVQLVESGGGLVQAGGSLRLSCAASGLIFYTYAMGWYRQAPGNERELVADINRSDGSTYYADSVKGRFTISRDNAKNTVYLQMNSLKPEDTAVYYCAVVGPYYSRFGGRYYYWGQGTQVTVSS | low polyreactivity
QVQLVESGGGLVQAGGSLRLSCAASGLIFYVYAMGWYRQAPGKERELVADITYSGGRTYYADSVKGRFTISRDKAKNTVYLQMNSLKPEDTAVYYCAADSVKYGIDPGLPNSDDYWGQGTQVTVSS | low polyreactivity
QVQLVESGGGLVQAGGSLRLSCAASGLIFYYYAMGGYRQAPGTQRELVACITGGDSTNYADSVKGRFTISRDNAKNTVYLQMNSLKPEDTAVYYCAAEFYGSSFGYRTYDYYYWGQGTEVTVSS | low polyreactivity
QVQLVESGGGLVQAGGSLRLSCAASGLIFYYYAMGWYRQAPGKEREFVAAISRRGGSTYYADSVKGRFTISRDNAKNTVYLHMNSLKPEDTAVYYCAAKSGSFVHGGYQTPVYGSDYWGQGTQVTVSS | high polyreactivity
QVQLVESGGGLVQAGGSLRLSCAASGLIFYYYAMGWYRQAPGKERELVAAITSDDRTYYADSVKGRFTISRDNAKNTFYLQMNSLKPEDTAVYYCAARYHGYLPQYRKYGYGYWGQGTQVTVSS | high polyreactivity
QVQLVESGGGLVQAGGSLRLSCAASGLIFYYYAMGWYRQAPGKEREVVAAISSNGGSTYYADSVKGRFTISRDNAKNTVYLQMNSLKPEDTAVYYCAAGYAYYYWTPYYYWGQGTQVTVSS | high polyreactivity
QVQLVESGGGLVQAGGSLRLSCAASGLIFYYYAMGWYRQAPWKEREFVAAISRSGGIKRYADSVKGRFTISRDNAKNTVYLQMNSLKPEDTAVYYCAARYYYRHAQSFPWSNRWSSYYYWGQGTQVTVSS | high polyreactivity
QVQLVESGGGLVQAGGSLRLSCAASGLIIPYYAMGWSRQAPGKERELVAGITSDGSTNYADSVMGRFTISRDNAKIIVYLQMYSLKPVDTAVYYCAKEQGLYSVSPYDYWGQGTQVSVSS | low polyreactivity

Sequence | polyreactivity (PSR sort gate)
QVQLVESGGGLVQAGGSLRLSCAASGLIIRRYAMGWYRQAPGKERELVAAISGSGSSTYYADSVKGRFTISRDNAKNTVYLQMNSLKPEDTAVYDCAAVVLFRRGQVIRVESDYWGQGTQVTVSS | high polyreactivity
QVQLVESGGGLVQAGGSLRLSCAASGLIIRWYAMGWYRQAPGKERELVAAITRAGSTNYADSVKWRFTISRDNAKNTVYLQMNSLKPEDTAVYYCAAVAVELASEYDYWGQGTQVTVSS | low polyreactivity
QVQLVESGGGLVQAGGSLRLSCAASGLIIWLYTMGWYRQAPGKERELVAAIDWSGGSTYYADSVKGRFTISRDNAKNTVYLQMNSLKPEDTAVYYCAADPEPSYRFDYWGQGTQVTVSS | low polyreactivity
QVQLVESGGGLVQAGGSLRLSCAASGLIIYSNAMGWYRQAPRKERELVAAINYSGGRTYYADSVKGRFTISRDNAKNTVYLQMNSLKPEDTAVYYCAARLYGAQRHGGYWGQGTQVTVSS | high polyreactivity
QVQLVESGGGLVQAGGSLRLSCAASGLIIYYYAMGWYRQAPGKERELVAAITWTAGSTSYADSVKGRFTISRDNAKNTVYLQMNSLKPEDTAVYYCAADYRHDTFSNQYDYWGQGTQVTVSS | low polyreactivity
QVQLVESGGGLVQAGGSLRLSCAASGLILHKYAMGWYRQAPGKERELVASINSGANTNYADSVKGRFTISRDNAKNTVYLQMNSLKPEDTAVYYCNASPFTVRYYKYEYWGQGTQVTVSS | low polyreactivity
QVQLVESGGGLVQAGGSLRLSCAASGLILSRNVMGWYRQAPGKERELVAAINWSSGSTYYADSVKGRFTISRDNGKNTVSLQMNSLKPEDTAVYYCAATVFYDAEYDYWGQGSQVTVSS | high polyreactivity
QVQLVESGGGLVQAGGSLRLSCAASGLILSSNAMGWYRQAPGKERELVAAITWDGDRTYADSVKGRFTISRDNAKNTVYLQMNSLKPEDTAVYYCAADKQYSWYDWSYDYWGQGTQVTVSS | low polyreactivity
QVQLVESGGGLVQAGGSLRLSCAASGLILVPNTMGWYRQAPGKERELVAAISYSGGGTYYADSVKGRFTISRDNANNTVYLQMNSLKPEDTAVYYCAAYVKRESAPYGYWGQGTLVTVSS | low polyreactivity
QVQLVESGGGLVQAGGSLRLSCAASGLILVPNTMGWYRQAPGKESELVAAISDSGGGTYYADSVKGRFTISRDNAKNTVYLQMISLKPEDTAVYYCAAYGKRESAPYGYWGQGTQVTVSS | low polyreactivity
QVQLVESGGGLVQAGGSLRLSCAASGLILVYYAMGWYRQAPGKERELVAAITPGGSTKYAESVKGRFTISRDNAKNTVYLQMNSLKPEDTAVYYCNALSGPYWYYVYQSHQDDYWGQGSQVTVSS | low polyreactivity
QVQLVESGGGLVQAGGSLRLSCAASGLILYTYAMGWYRQAPGKERELVAALNSGGRTYSADSVKGRFTISRDNAKNTVYLQMNSLKPEDTAVYYCAADYGSRVRGFNYWGQGTQVTVSS | low polyreactivity
QVQLVESGGGLVQAGGSLRLSCAASGLINYYYAMGWYRQAPGKERELVAAISGSSGASTYYADSVKGRFTISRDNAKNTVYLQMNSLKPEDTAVYYCATPVASVTGYDYWGQGTQVTVSS | low polyreactivity
QVQLVESGGGLVQAGGSLRLSCAASGLISTPNAMGWSRQAPGKERELVASISSRGGSTYYADSVKGRFTISRDNAKNTVYLQMNSLKPEDTAVYYCAADAYRDFYYEYYYWGQGSQVTVSS | low polyreactivity
QVQLVESGGGLVQAGGSLRLSCAASGLISYHYAMGWYRQAPGKERELVASISYTGGSTFYADSVKGRFTISRDNAKNTVYFQMNSLKPEDTAVYYCAAYRIWRPSYYYWGQGTQVTVSS | high polyreactivity
QVQLVESGGGLVQAGGSLRLSCAASGLIYFYAMGWYRQAPGKERELVAAISSSGGRTYYADSVKGRFTISRDNAKNTVYLQMNSLKPEDTAVYYCAVVSSHYIGPGRNGYDYWGQGTQVTVSS | high polyreactivity
QVQLVESGGGLVQAGGSLRLSCAASGLMFRHYAMGWYRPAPGKERELVAAIDYSGGSTYYADSVKGRFTISRDNAKNTVYLQMNCLKPEDTAVYYCNRYHRLRVVPSRFVKYDYWGQGTQVTVSS | low polyreactivity
QVQLVESGGGLVQAGGSLRLSCAASGLNFRKYAMGWYRQAPGKERELVAGISSGGSTYYADSVKGRFTISRDNAKNTVYLQMNSLKPEDTAVYYCAAKALRTMYYWGQGTQVTVSS | high polyreactivity
QVQLVESGGGLVQAGGSLRLSCAASGLNFYYYTMGWYREAPGKERELVATISRSGTSTNYADSVKGRFTISRDNAKNTVYLQMNSLKPEDTAVYYCAAVLRWRDLFSEYYYLGQGTQVTVSS | high polyreactivity
QVQLVESGGGLVQAGGSLRLSCAASGLSFYLYAMGWYRQAPGKERELVAAISSSGSSTYYADSVKGRFTISRDNAKNTVYLQMNSLKPEDTAVYYCNARGTRASRYDYWGQGTQVTVSS | high polyreactivity
QVQLVESGGGLVQAGGSLRLSCAASGLTFAFYAMGWYRQAPGKEREFVARIRTSAITYYADSVKGRFTISRDNAKTTVYLQMNSLKPEDTAVYYCAVSWNKLRDSSLYAYYYWGQGTQVTVSS | high polyreactivity
